# Measured values taken from patent publication US20100310509A1 (published 2010).
# T1: gp130 bound OSM-M2 (gp130:OSM-M2) (human, UniProt P40189 23-619)
# T1 construct: extracellular domain; Non-covalent complex formed on the plate: gp130 coated, then 200 nM OSM-M2; also called OSM-M2 with gp130; not shown: N-terminal FLAG tag
# T1 sequence 1: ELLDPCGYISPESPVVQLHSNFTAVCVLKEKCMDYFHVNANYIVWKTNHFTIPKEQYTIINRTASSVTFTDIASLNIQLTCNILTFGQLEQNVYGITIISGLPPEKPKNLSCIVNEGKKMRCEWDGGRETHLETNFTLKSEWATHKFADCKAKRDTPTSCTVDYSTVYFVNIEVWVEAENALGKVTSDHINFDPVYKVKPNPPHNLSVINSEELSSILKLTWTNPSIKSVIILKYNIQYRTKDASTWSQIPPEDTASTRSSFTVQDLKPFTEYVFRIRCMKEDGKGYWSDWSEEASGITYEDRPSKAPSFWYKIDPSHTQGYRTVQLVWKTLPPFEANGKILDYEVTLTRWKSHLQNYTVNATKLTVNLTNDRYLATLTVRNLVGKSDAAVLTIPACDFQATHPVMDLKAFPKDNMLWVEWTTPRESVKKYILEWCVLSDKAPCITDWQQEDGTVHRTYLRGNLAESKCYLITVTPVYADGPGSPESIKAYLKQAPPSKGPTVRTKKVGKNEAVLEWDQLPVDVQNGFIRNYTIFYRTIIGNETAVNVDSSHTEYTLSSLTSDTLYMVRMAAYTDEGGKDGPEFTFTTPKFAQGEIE
# T1 sequence 2: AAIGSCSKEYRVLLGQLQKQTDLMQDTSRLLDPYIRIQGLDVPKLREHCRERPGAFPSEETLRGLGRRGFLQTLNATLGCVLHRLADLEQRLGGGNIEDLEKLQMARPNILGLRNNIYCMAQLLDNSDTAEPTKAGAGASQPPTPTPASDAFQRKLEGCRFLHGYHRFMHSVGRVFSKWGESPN
# T2: gp130 bound OSM-WT (gp130:OSM-WT) (human, UniProt P40189 23-619)
# T2 construct: extracellular domain; Non-covalent complex formed on the plate: gp130 coated, then 200 nM OSM-WT; also called OSM-WT with gp130; not shown: N-terminal FLAG tag
# T2 sequence 1: T1 sequence 1
# T2 sequence 2: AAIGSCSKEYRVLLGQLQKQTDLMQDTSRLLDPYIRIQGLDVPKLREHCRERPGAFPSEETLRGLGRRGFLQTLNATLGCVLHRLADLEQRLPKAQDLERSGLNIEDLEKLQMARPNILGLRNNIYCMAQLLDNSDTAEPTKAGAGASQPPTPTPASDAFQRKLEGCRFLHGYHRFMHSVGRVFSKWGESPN
# T3: gp130 bound OSM-M1 (gp130:OSM-M1) (human, UniProt P40189 23-619)
# T3 construct: extracellular domain; Non-covalent complex formed on the plate: gp130 coated, then 200 nM OSM-M1; also called OSM-M1 with gp130; not shown: N-terminal FLAG tag
# T3 sequence 1: T1 sequence 1
# T3 sequence 2: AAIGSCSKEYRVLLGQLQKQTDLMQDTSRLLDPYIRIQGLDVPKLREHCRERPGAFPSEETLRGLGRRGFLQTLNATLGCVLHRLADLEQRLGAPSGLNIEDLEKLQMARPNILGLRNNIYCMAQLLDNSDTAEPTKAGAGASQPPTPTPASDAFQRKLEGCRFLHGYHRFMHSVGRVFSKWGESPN
# B1: soluble human OSMR (Oncostatin M receptor) (receptor, UniProt Q99650 28-740, looked up)
# chain: ERLPLTPVSLKVSTNSTRQSLHLQWTVHNLPYHQELKMVFQIQISRIETSNVIWVGNYSTTVKWNQVLHWSWESELPLECATHFVRIKSLVDDAKFPEPNFWSNWSSWEEVSVQDSTGQDILFVFPKDKLVEEGTNVTICYVSRNIQNNVSCYLEGKQIHGEQLDPHVTAFNLNSVPFIRNKGTNIYCEASQGNVSEGMKGIVLFVSKVLEEPKDFSCETEDFKTLHCTWDPGTDTALGWSKQPSQSYTLFESFSGEKKLCTHKNWCNWQITQDSQETYNFTLIAENYLRKRSVNILFNLTHRVYLMNPFSVNFENVNATNAIMTWKVHSIRNNFTYLCQIELHGEGKMMQYNVSIKVNGEYFLSELEPATEYMARVRCADASHFWKWSEWSGQNFTTLEAAPSEAPDVWRIVSLEPGNHTVTLFWKPLSKLHANGKILFYNVVVENLDKPSSSELHSIPAPANSTKLILDRCSYQICVIANNSVGASPASVIVISADPENKEVEEERIAGTEGGFSLSWKPQPGDVIGYVVDWCDHTQDVLGDFQWKNVGPNTTSTVISTDAFRPGVRYDFRIYGLSTKRIACLLEKKTGYSQELAPSDNPHVLVDTLTSHSFTLSWKDYSTESQPGFIQGYHVYLKSKARQCHPRFEKAVLSDGSECCKYKIDNPEEKALIVDNLKPESFYEFFITPFTSAGEGPSATFTKVTTPDEHSSM
# notes: extracellular domain; Bought; also called soluble OSMR
# What was measured:
# [1] = molecular target: T4, gp130 bound LIF (gp130:LIF) (human, UniProt P40189 23-619; P15018 23-202); test: ELISA, gp130 coated and loaded with LIF, soluble OSMR titrated, anti-OSMR detection, O.D at 450 nm
# T4 construct: Non-covalent complex formed on the plate: gp130 coated, then saturating cytokine; also called LIF with gp130
# [2] = molecular target: T1, gp130 bound OSM-M2 (gp130:OSM-M2); test: ELISA, apparent KD (KD,App), gp130 coated, saturating cytokine, soluble OSMR titrated (with gp130)
# Method: (§1) FIG. 13 graphically depicts an ELISA analysis of soluble OSMR and soluble LIFR binding with LIF, OSM-WT, OSM-M1 and OSM-M2 or gp130 bound LIF (gp130:LIF), OSM-WT (gp130:OSM-WT), OSM-M1 (gp130:OSM-M1) and OSM-M2 (gp130:OSM-M2). Cytokines (LIF, OSM-WT, OSM-M1 or OSM-M2) immobilized on an ELISA plate in the absence (A,C) or presence (B,D) of gp130 were treated with various concentrations of soluble OSMR (A,B) or soluble LIFR (C,D). Equilibrium KD values were estimated using a non-linear curve fitting to the binding data using GraphPad Prism (Graph Pad Software. LaJolla, Calif.). In addition, see Table 3.
# (§2) Enzyme-linked immunosorbent assay (ELISA): ELISA was used to evaluate the equilibrium binding strength of the interaction between the cytokines and their receptors. This technique has traditionally been used as a sensitive method to quantify the binding affinities between two interacting proteins. However, unlike in SPR, ELISA involves immobilization of the proteins on a flat plastic surface driven by hydrophobic and ionic interactions. This might cause some distortion in the 3 dimensional structure of immobilized protein which leads to inaccuracies in the estimation of dissociation constants. It is thus important to bear in mind that the values estimated using this technique are to be used only for comparison between species but not as true equilibrium binding constants. The results obtained using this technique will thus be presented as apparent equilibrium dissociation constants (K_{D,App}). For direct interaction studies, cytokines (LIF, OSM-WT, OSM-M1 or OSM-M2) were immobilized on the 96 well ELISA plate by incubating the wells with 200 μl of 5 nM cytokine solution in PBS, pH 7.4 overnight at 4° C. The wells were then blocked with blocking buffer (4% BSA in PBS) for 1 hour at room temperature. […]
# [3] = molecular target: T2, gp130 bound OSM-WT (gp130:OSM-WT); test: as above
# Method: as §1, §2
# [4] = molecular target: T3, gp130 bound OSM-M1 (gp130:OSM-M1); test: as above
# Method: as §1, §2
# T4 sequence (P15018 23-202 limits assumed, one chain of several): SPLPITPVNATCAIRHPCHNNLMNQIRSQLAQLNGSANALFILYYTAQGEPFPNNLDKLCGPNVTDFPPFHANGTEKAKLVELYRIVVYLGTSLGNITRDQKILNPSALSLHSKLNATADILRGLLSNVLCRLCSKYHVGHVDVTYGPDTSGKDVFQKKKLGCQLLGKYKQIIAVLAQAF
binder,measurement,setting,value
B1,binding result,[1],no binding (tested: 75 nM)
same,Kd,[2],2.19 nM
same,Kd,[3],10.9 nM
same,Kd,[4],3.71 nM
